Experimental data published in US20240409645A1 (DUALYX, published 2024).
Where a chain is given by its changes, count along the chain named.

T1: human IL-2Rβ (human, UniProt P14784 27-240, limits assumed)
T1 construct: recombinant protein, coated or immobilised; also called hu IL-2R; IL-2R beta
T1 sequence: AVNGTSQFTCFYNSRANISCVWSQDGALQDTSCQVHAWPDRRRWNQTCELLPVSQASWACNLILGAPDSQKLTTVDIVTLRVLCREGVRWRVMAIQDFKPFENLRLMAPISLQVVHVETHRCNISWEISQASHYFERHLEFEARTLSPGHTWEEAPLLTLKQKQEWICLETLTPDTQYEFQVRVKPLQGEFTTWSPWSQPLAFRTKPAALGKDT

B1: FJ1427 P035MP02C11 (VHH)
VHH: QVQLVESGGGLVQAGGSLRLSCAVSGDVFVRYTMAWFRQAPGKEREFVASVTDSGRTTEYVDSVKGRFTVSRDNAKNTVYLQMNSLKPEDTAVYYCAANTDYFQIRSLRANTWGQGTQVTVSS
notes: soluble VHH in periplasmic extract; also called clone nr
B2: FJ1427_P035MP02G07 (VHH)
VHH: B1 VHH with V79A, S85N, R109D, A110L
notes: as for B1
B3: FJ1427_P035MP02E07 (VHH)
VHH: B1 VHH with R19G, S21A, V24L, E59D, D62A, K65Q, A75N, R109D, A110R
notes: as for B1
B4: FJ1427_P035MP02A09 (VHH)
VHH: B1 VHH with V64A
notes: as for B1
B5: FJ1427 P035MP02F07 (VHH)
VHH: B1 VHH with V24A, E59D, S85N, V93R, R109D
notes: soluble VHH in periplasmic extract; also called clone nr; 150
B6: FJ1427_P035MP02B08 (VHH)
VHH: EVQLVESGGGLVQAGGSLRLSCAASGRAIENYPVGWFRQAPGKEREFVAAITWISGSTLYADSVKGRFTISRDNAKNTVYLQMSSLKPEDTALYYCAAALKTITRGQNDYSYWGQGTQVTVSS
notes: soluble VHH in periplasmic extract; also called 16-MP02B08; clone nr
B7: FJ1427 P035MP02H09 (VHH)
VHH: B6 VHH with E1Q, V2L, A14P, S25A, Q39R
notes: as for B1
B8: FJ1427_P035MP02E10 (VHH)
VHH: B6 VHH with E1Q, S25A, Q39R
notes: as for B1
B9: FJ1427_P035MP02B10 (VHH)
VHH: QVQLVESGGGLVEAGGSLRLSCAASGRAFNNFPMGWFRQAPGKEREFVAAITWISGSTLYADSVKGRFTISRDKSKNTVYLQMSGLKPEDTALYYCAAALKTITRGQHDYTYWGQGTQVTVSS
notes: soluble VHH in periplasmic extract; also called clone nr; 170
B10: FJ1427 P035MP02B07 (VHH)
VHH: B9 VHH with Q1E
notes: as for B1
B11: FJ1427 P035MP03A12 (VHH)
VHH: EVQLVESGGGLVQAGGSLRLSCAASGRTFSINAMGWFRQAPGKEREFVAAISRSGGSTVYVDGVKGRFTISRDNAKNTVYLQMNSLEPEDTAVYYCAATMAVGWTTRWRTADFDSWGQGTQVTVSS
notes: soluble VHH in periplasmic extract; also called 21-MP03A12; clone nr
B12: FJ1427_P035MP02C07 (VHH)
VHH: B11 VHH with E1Q, A33T, G56D, G63S, S85T, E87K, A98T, M100V, R109S, A111I
notes: as for B1
B13: FJ1427_P035MP02B09 (VHH)
VHH: EVQLVESGGGLVQAGGSLRLSCAASGRTFSTTEMGWFRQAPGKEREFVAAITWTGRGTMYAESVEGRFTISRENAKNMVYLQMNSLKPEDTAIYYCAAARRGRAAVRSEGGYDFWGQGTQVTVSS
notes: as for B1
B14: FJ1427_P035MP02G10 (VHH)
VHH: B13 VHH with E1Q
notes: as for B1
B15: FJ1427_P035MP02D07 (VHH)
VHH: B13 VHH with T28S, F29L, T54S, T69A, I70V, M78T
notes: as for B1
B16: FJ1427_P035MP02A11 (VHH)
VHH: B13 VHH with V121A
notes: as for B1

Each binder was assayed against T1, human IL-2Rβ (assay: P.E. ELISA, coated protein).
Procedure: In a binding ELISA, human or mouse IL-2Rα, IL-2Rβ and IL-2Rγ proteins were coated directly on maxisorp microtiter plates overnight at 4° C. Free binding sites were blocked using 4% Marvel in PBS for 1 hour. Next, 1:5 dilution of P.E. in 1% Marvel/PBS were added to wells and incubated for 1 hour. […] Binding specificity was determined based on O.D. at 450 nm values compared to negative controls.

Going from B1 to B2, the “P.E. binding ELISA OD” value falls from 1.57 OD450 nm to 0.636 OD450 nm.

Going from B3 to B4, the “P.E. binding ELISA OD” value rises from 0.541 OD450 nm to 1.3 OD450 nm.

First: B5
Second: B6
The “P.E. binding ELISA OD” value of the first is lower: 0.848 OD450 nm for the first, 1.38 OD450 nm for the second.

First: B7
Second: B8
The “P.E. binding ELISA OD” value of the first is higher: 1.51 OD450 nm for the first, 1.39 OD450 nm for the second.

Going from B9 to B10, the “P.E. binding ELISA OD” value falls from 0.476 OD450 nm to 0.38 OD450 nm.

First: B11
Second: B12
The “P.E. binding ELISA OD” value of the first is lower: 0.146 OD450 nm for the first, 0.731 OD450 nm for the second.

Compared with B13, B14 is higher in “P.E. binding ELISA OD” value: 0.811 OD450 nm for the first, 0.974 OD450 nm for the second.

Compared with B15, B16 is higher in “P.E. binding ELISA OD” value: 0.747 OD450 nm for the first, 0.891 OD450 nm for the second.

The binders below were run against T1, human IL-2Rβ (assay: SPR, P.E. off-rate).
Procedure: SPR was performed to determine dissociation rates using Biacore 3000 instrument (GE Healthcare). Briefly, human and mouse IL-2R proteins were immobilized on carboxylmethyl dextran sensor chip (CM5) at approximately 2500 RUs using amine coupling in acetate buffer (GE Healthcare). The VHH-containing P.E. were loaded with a flow rate of 30 uL/min and the off-rates were measured over a 120s period.

Going from B1 to B2, the koff falls from 0.000433 s⁻¹ to 0.000259 s⁻¹ (1.7-fold).

B3 and B4 are within 1.5-fold of each other in koff: 0.000577 s⁻¹ for the first, 0.000617 s⁻¹ for the second.

First: B5
Second: B6
The koff of the first is 12-fold higher: 0.00164 s⁻¹ for the first, 0.000141 s⁻¹ for the second.

Going from B7 to B8, the koff rises from 0.000141 s⁻¹ to 0.000615 s⁻¹ (4.4-fold).

B9 and B10 are within 1.5-fold of each other in koff: 0.000284 s⁻¹ for the first, 0.000336 s⁻¹ for the second.

First: B11
Second: B12
The koff of the first is 2.7-fold higher: 0.00628 s⁻¹ for the first, 0.00231 s⁻¹ for the second.

B13 and B14 are within 1.5-fold of each other in koff: 0.00022 s⁻¹ for the first, 0.000307 s⁻¹ for the second.

Compared with B15, B16 is 3.4-fold lower in koff: 0.000982 s⁻¹ for the first, 0.000293 s⁻¹ for the second.
